The source of these data is US20230270119A1, “BIOSTIMULANT AND BIOPROTECTIVE PEPTIDES AND THEIR USE IN AGRICULTURE” (priority 2020, published 2023).

Series [1] deals with Spodoptera littoralis larvae. Kind of series: Bioassay on Spodoptera littoralis larvae fed with peptide-treated tomato leaves. Format: in vivo. How it is done:
Briefly, S. littoralis larvae were grown in a climate chamber at 25° C., 70% relative humidity (RH), with a 16-hour light and 8-hour dark photoperiod and fed with an artificial diet until completion of the first moult. For the bioassays, 150 larvae for each thesis were grown on tomato leaves for the entire duration of the second instar to adapt them to the different diet. The newly moulted third-instar larvae up to the moult stage were fed with plants on which a composition comprising peptides PS1-70 and PS1-120 had been applied at 100 pM and 100 fM concentrations in 1×PBS buffer. Larvae fed with plants treated with 1×PBS buffer only were used as a control. Bioassays were carried out under the same environmental conditions, in 32-well plastic trays containing 1.5% (w/v) agar and 0.005% (w/v) methyl parahydroxybenzoate, which are useful for creating a humid environment for maintaining cell turgor of tomato leaves. Each experimental group consisted of 32 larvae. The survival of the larvae was monitored daily, and their weight every other day. […] A significant decrease in the survival of larvae fed with leaves of plants treated with the peptides of the invention compared to those fed with leaves of the control plants was also observed for both assays (FIGS. 10B and 10D). […] The same assay scheme was carried out by the present inventors by feeding S. littoralis larvae with leaves treated with the peptide PS1-70 and with peptides having the sequences SEQ ID NO. 3, 5, and 8 at femtomolar concentration. […] A significant decrease was also observed in the survival of larvae fed with peptide-treated leaves compared to those fed with the control leaves (FIG. 11B). […] 8, SEQ ID NO. 3, and SEQ ID NO. 5 (FIG. 11B).

Series [2] is described as follows: Biometric parameters of tomato plants irrigated with peptides. Format: in vivo. The following applies: 100 fM; for root surface (root area): 14 days of salt stress 150 mM, 15 days after irrigation (FIG. 20A); for growth (fresh weight) of the aerial part: absence of salt (FIG. 20B). How it is done:
FIG. 20 illustrates the effect of irrigation treatment with the peptides PS1-70, PS1-120 and SEQ ID NO.5 at a concentration of 100 fM on the biometric parameters of the tomato plant. […] The asterisks indicate the statistical significance of the data by Student's t-test (*p<0.05). A few biometric parameters are shown in FIG. 20, measured after 14 days of continuous salt stress (150 mM) and 15 days after irrigation with the peptides PS1-70, PS1-120 and SEQ ID NO.5 at 100 fM concentrations, and the respective controls.

A further series has as its system S. littoralis larvae. Also noted: species or system Spodoptera littoralis. Conditions: in vivo, po.
Series [3] relates to cat1, tft1, Sam, HSFA2, HSP70, HSP90, MPK1 and WRKY40 genes. Kind of series: Salt stress gene expression in tomato plants irrigated with 100 pM peptide. Format: in vivo. Conditions: 100 pM irrigation. How it is done: The analysis was carried out on the cat1, tft1, Sam, HSFA2, HSP70, HSP90, MPK1 and WRKY40 genes. The asterisks indicate the statistical significance of the data by Student's t-test (*p<0.05; **p<0.01; ***p<0.001).
An experiment was also set up to verify the efficiency of the peptides PS1-70, PS1-120 and SEQ ID NO.5, when administered at femtomolar concentrations, in promoting tolerance to a high salt stress condition.

The mark [4] stands for this setting: day 13, leaves treated at 100 fM, control 44 mg (FIG. 10C).
The mark [5] stands for this setting: day 15, 100 pM, control 96.87% (FIG. 10B).
Setting [6] is: day 15, leaves treated at 100 pM, control 38 mg (FIG. 10A).

B1: PS1-120: recombinant peptide contained in the amino-terminal region of the Prosystemin polypeptide, free of Systemin; expressed in E. coli (protein)
chain: MGTPSYDIKNKGDDMQEEPKVKLHHEKGGDEKEKIIEKETPSQDINNKDTISSYVLRDDTQEIPKMEHEEGGYVKEKIVEKETISQYIIKIEGDDDAQEKLKVEYEEEEYEKEKIVEKET
modifications: Peptide PS1-120
notes: recombinant peptide contained in the amino-terminal region of the Prosystemin polypeptide, free of Systemin; expressed in E. coli
For B1, the “average weight of larvae” value is 12 mg in series [1] (setting [4]) and 20 mg in series [1] (setting [6]). Also, in series [1] (setting [5]), the “survival rate of larvae” value is 31.25%. Moreover, the “root surface (root area)” value in series [2] is on record as “greater root surface”. The “growth (fresh weight) of the aerial part” value in series [2] is reported as “able to promote the growth of the aerial part of the plant”. For the same molecule, the “direct toxic effect on survival and development of larvae” value in the series on S. littoralis larvae was “no effect on their survival and development”.

B2: PS1-70: recombinant peptide contained in the amino-terminal region of the Prosystemin polypeptide, free of Systemin; expressed in E. coli (protein)
chain: MGTPSYDIKNKGDDMQEEPKVKLHHEKGGDEKEKIIEKETPSQDINNKDTISSYVLRDDTQEIPKMEHEE
modifications: Peptide PS1-70
notes: as for B1
Turning to B2, the “activation of salt stress-responsive genes and transcription factors” value in series [3] (48 hours, 0 mM NaCl (FIG. 17A)) is “able to activate a series of genes and transcription factors responsive to salt stress”. Further, the “tolerance to salt / induction of responsive genes” value in series [3] (moderate salt stress 80 mM NaCl (FIG. 17B)) was “more tolerant to salt than the untreated control plants”. Besides, the “survival rate of larvae” value is on record as 0% in series [1] (day 13, 100 fM, control 100% (FIG. 10D)); 31.25% in series [1] (day 13, femtomolar concentration, control 100% (FIG. 11B)); 34.37% in series [1] (setting [5]). The “average weight of larvae” value was 22 mg in series [1] (day 13, femtomolar concentration, control 59 mg (FIG. 11A)); 11 mg in series [1] (setting [4]); 15 mg in series [1] (setting [6]). In series [2], the “root surface (root area)” value is on record as “greater root surface”. Moreover, the “growth (fresh weight) of the aerial part” value in series [2] is given as “able to promote the growth of the aerial part of the plant”. For the same molecule, the “direct toxic effect on survival and development of larvae” value in the series on S. littoralis larvae is “no effect on their survival and development”.
